The record followed here is US20140087995A1 (published 2014).

Numbered stars: 1 amine (or outer) side, 2 acyl side, 3 side chain; on linkers, the order of the positions; unused ones are H or OH. Bridge positions count the residues as written; N and C are the ends. * marks the point of attachment. C20 diacid = O=C(O)CCCCCCCCCCCCCCCCCCC(=O)*; γGlu = O=C(O)[C@H](CCC(=O)[*:2])N[*:1]

The target of experiment [1] is T1, human calcitonin receptor (human, UniProt P30988 25-474).
T1 construct: whole, on cells; Assay used cell membranes of the transfected BHK cells; also called hCTR; hCT
T1 sequence (looked up): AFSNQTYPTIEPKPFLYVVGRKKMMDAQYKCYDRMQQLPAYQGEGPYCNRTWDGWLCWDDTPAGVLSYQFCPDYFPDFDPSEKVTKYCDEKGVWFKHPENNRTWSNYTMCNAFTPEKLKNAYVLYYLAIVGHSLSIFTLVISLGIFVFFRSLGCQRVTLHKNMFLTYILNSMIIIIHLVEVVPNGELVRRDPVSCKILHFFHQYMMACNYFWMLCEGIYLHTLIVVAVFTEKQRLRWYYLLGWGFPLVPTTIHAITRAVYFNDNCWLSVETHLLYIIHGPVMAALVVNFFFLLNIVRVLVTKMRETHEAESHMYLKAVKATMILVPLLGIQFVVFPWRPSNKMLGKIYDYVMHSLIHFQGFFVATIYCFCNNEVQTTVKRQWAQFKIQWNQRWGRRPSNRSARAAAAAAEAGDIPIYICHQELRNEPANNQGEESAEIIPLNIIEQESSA
Nature of the experiment: SPA radioligand competition (125I-calcitonin), membranes of BHK cells with human calcitonin receptor. In a few lines:
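BHK hCTR membranes 35 ng/μL + SPA beads 0.05 mg/well; buffer 50 mM Hepes pH 7.4, 1 mM CaCl2, 5 mM MgCl₂, 0.1% OA, 0.02% Tween20. 120 min, 25° C., shaking. Scintillation count; IC50 by one-site binding competition.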
On the technique in general: Displacement assays read how much labelled ligand stays bound in the presence of the test substance.

Experiment [2] concerns the target T1, human calcitonin receptor. Nature of the experiment: ratio IC50 hCTR / IC50 hAmylin-R of the two SPA competition assays; reference: human amylin receptor. The procedure:
The resulting pellet was resuspended, homogenized and centrifuged (20.000 rpm, 15 min) in a buffer containing 20 mM Na-HEPES and 0.1 mM EDTA (pH 7.4, buffer 2). The resulting pellet was resuspended in buffer 2 and protein concentration was measured (BCA protein Assay, Pierce). The homogenate was kept cold during the whole procedure. The membranes were kept at −80° C. until use. The assay was performed in a 384 well Optiplate (PerkinElmer) in a total volume of 40 ul. Membranes were mixed with SPA beads. Final concentration of membranes 35 ng/μL final and SPA beads was 0.05 mg/well. Test-compounds were dissolved in DMSO and further diluted in assay buffer (50 mM Hepes, pH 7.4, 1 mM CaCl2, 5 mM MgCl₂, 0.1% OA and 0.02% Tween20). […] The final mixture was incubated with shaking at 400 rpm for 120 min at 25° C. prior to centrifugation (1500 rpm, 10 min). Samples were analyzed on TopCounter™ (Packard). The IC₅₀ was calculated using (one site binding competition analysis) GraphPad Prism5 as a measure of receptor affinity.
Membranes were prepared in the following way; the cells were rinsed with PBS and incubated with Versene for approximately 5 min before harvesting. The cells were flushed with PBS and the cell-suspension was centrifuged for 5 min at 1000 rpm. Cells were homogenized (Ultrathurrax) in a buffer containing 20 mM Na-HEPES and 10 mM EDTA (pH 7.4) and centrifuged at 20.000 rpm for 15 min. The resulting pellet was resuspended, homogenized and centrifuged (20.000 rpm, 15 min) in a buffer containing 20 mM Na-HEPES and 0.1 mM EDTA (pH 7.4, buffer 2). The resulting pellet was resuspended in buffer 2 and protein concentration was measured (BCA protein Assay, Pierce). The homogenate was kept cold during the whole procedure. The membranes were kept at −80° C. until use. Assay was performed in a 384 well Optiplate (PerkinElmer) in a total volume of 40 ul. Membranes were mixed with SPA beads.

B1: N^α1-[(4S)-4-carboxy-4-(19-carboxynonadecanoylamino)butanoyl]-[Glu14,Arg17,Pro21,Pro26]-h-amylin (peptide)
peptide: {C20 diacid-γGlu}-KCNTATCATQRLAEFLRHSSPNFGAPLSSTNVGSNTY-NH2
modifications: disulfide 2-7
SMILES: CC(C)C[C@H](NC(=O)[C@H](CCCNC(=N)N)NC(=O)[C@H](CCC(N)=O)NC(=O)[C@@H](NC(=O)[C@H](C)NC(=O)[C@@H]1CSSC[C@H](NC(=O)[C@H](CCCCN)NC(=O)CC[C@H](NC(=O)CCCCCCCCCCCCCCCCCCC(=O)O)C(=O)O)C(=O)N[C@@H](CC(N)=O)C(=O)N[C@@H]([C@@H](C)O)C(=O)N[C@@H](C)C(=O)N[C@@H]([C@@H](C)O)C(=O)N1)[C@@H](C)O)C(=O)N[C@@H](C)C(=O)N[C@@H](CCC(=O)O)C(=O)N[C@@H](Cc1ccccc1)C(=O)N[C@@H](CC(C)C)C(=O)N[C@@H](CCCNC(=N)N)C(=O)N[C@@H](Cc1c[nH]cn1)C(=O)N[C@@H](CO)C(=O)N[C@@H](CO)C(=O)N1CCC[C@H]1C(=O)N[C@@H](CC(N)=O)C(=O)N[C@@H](Cc1ccccc1)C(=O)NCC(=O)N[C@@H](C)C(=O)N1CCC[C@H]1C(=O)N[C@@H](CC(C)C)C(=O)N[C@@H](CO)C(=O)N[C@@H](CO)C(=O)N[C@H](C(=O)N[C@@H](CC(N)=O)C(=O)N[C@H](C(=O)NCC(=O)N[C@@H](CO)C(=O)N[C@@H](CC(N)=O)C(=O)N[C@H](C(=O)N[C@@H](Cc1ccc(O)cc1)C(N)=O)[C@@H](C)O)C(C)C)[C@@H](C)O
notes: Synthetic analogue; also called compound 7
The term IC50 denotes the concentration that inhibits the measured activity by half. For B1, the IC50 in experiment [1] is 0.0111 µM. In addition, the “Ratio hCT/hAmylin binding” value in experiment [2] was found to be 16.5.

B2: N^α1-[(4S)-4-carboxy-4-(19-carboxynonadecanoylamino)butanoyl]-[Glu14,Arg17,Pro21,Pro27,Pro34]-h-amylin (peptide)
peptide: {C20 diacid-γGlu}-KCNTATCATQRLAEFLRHSSPNFGAIPSSTNVGPNTY-NH2
modifications: disulfide 2-7
SMILES: CC[C@H](C)[C@H](NC(=O)[C@H](C)NC(=O)CNC(=O)[C@H](Cc1ccccc1)NC(=O)[C@H](CC(N)=O)NC(=O)[C@@H]1CCCN1C(=O)[C@H](CO)NC(=O)[C@H](CO)NC(=O)[C@H](Cc1c[nH]cn1)NC(=O)[C@H](CCCNC(=N)N)NC(=O)[C@H](CC(C)C)NC(=O)[C@H](Cc1ccccc1)NC(=O)[C@H](CCC(=O)O)NC(=O)[C@H](C)NC(=O)[C@H](CC(C)C)NC(=O)[C@H](CCCNC(=N)N)NC(=O)[C@H](CCC(N)=O)NC(=O)[C@@H](NC(=O)[C@H](C)NC(=O)[C@@H]1CSSC[C@H](NC(=O)[C@H](CCCCN)NC(=O)CC[C@H](NC(=O)CCCCCCCCCCCCCCCCCCC(=O)O)C(=O)O)C(=O)N[C@@H](CC(N)=O)C(=O)N[C@@H]([C@@H](C)O)C(=O)N[C@@H](C)C(=O)N[C@@H]([C@@H](C)O)C(=O)N1)[C@@H](C)O)C(=O)N1CCC[C@H]1C(=O)N[C@@H](CO)C(=O)N[C@@H](CO)C(=O)N[C@H](C(=O)N[C@@H](CC(N)=O)C(=O)N[C@H](C(=O)NCC(=O)N1CCC[C@H]1C(=O)N[C@@H](CC(N)=O)C(=O)N[C@H](C(=O)N[C@@H](Cc1ccc(O)cc1)C(N)=O)[C@@H](C)O)C(C)C)[C@@H](C)O
notes: Synthetic analogue; also called compound 32
For B2, the IC50 in experiment [1] was 0.00109 µM. The “Ratio hCT/hAmylin binding” value in experiment [2] was 10.9.

B3: N^α1-[(4S)-4-carboxy-4-(19-carboxynonadecanoylamino)butanoyl]-[Glu14,Arg17,Pro21,Pro27,His34]-h-amylin (peptide)
peptide: {C20 diacid-γGlu}-KCNTATCATQRLAEFLRHSSPNFGAIPSSTNVGHNTY-NH2
modifications: disulfide 2-7
SMILES: CC[C@H](C)[C@H](NC(=O)[C@H](C)NC(=O)CNC(=O)[C@H](Cc1ccccc1)NC(=O)[C@H](CC(N)=O)NC(=O)[C@@H]1CCCN1C(=O)[C@H](CO)NC(=O)[C@H](CO)NC(=O)[C@H](Cc1c[nH]cn1)NC(=O)[C@H](CCCNC(=N)N)NC(=O)[C@H](CC(C)C)NC(=O)[C@H](Cc1ccccc1)NC(=O)[C@H](CCC(=O)O)NC(=O)[C@H](C)NC(=O)[C@H](CC(C)C)NC(=O)[C@H](CCCNC(=N)N)NC(=O)[C@H](CCC(N)=O)NC(=O)[C@@H](NC(=O)[C@H](C)NC(=O)[C@@H]1CSSC[C@H](NC(=O)[C@H](CCCCN)NC(=O)CC[C@H](NC(=O)CCCCCCCCCCCCCCCCCCC(=O)O)C(=O)O)C(=O)N[C@@H](CC(N)=O)C(=O)N[C@@H]([C@@H](C)O)C(=O)N[C@@H](C)C(=O)N[C@@H]([C@@H](C)O)C(=O)N1)[C@@H](C)O)C(=O)N1CCC[C@H]1C(=O)N[C@@H](CO)C(=O)N[C@@H](CO)C(=O)N[C@H](C(=O)N[C@@H](CC(N)=O)C(=O)N[C@H](C(=O)NCC(=O)N[C@@H](Cc1c[nH]cn1)C(=O)N[C@@H](CC(N)=O)C(=O)N[C@H](C(=O)N[C@@H](Cc1ccc(O)cc1)C(N)=O)[C@@H](C)O)C(C)C)[C@@H](C)O
notes: Synthetic analogue; also called compound 17
As for B3, in experiment [1], the IC50 came out at 0.0109 µM. In experiment [2], the “Ratio hCT/hAmylin binding” value was 12.5.

B4: N^α1-[(4S)-4-carboxy-4-(19-carboxynonadecanoylamino)butanoyl]-[Glu14,Arg17,Pro21,Pro27,Arg35]-h-amylin (peptide)
peptide: {C20 diacid-γGlu}-KCNTATCATQRLAEFLRHSSPNFGAIPSSTNVGSRTY-NH2
modifications: disulfide 2-7
SMILES: CC[C@H](C)[C@H](NC(=O)[C@H](C)NC(=O)CNC(=O)[C@H](Cc1ccccc1)NC(=O)[C@H](CC(N)=O)NC(=O)[C@@H]1CCCN1C(=O)[C@H](CO)NC(=O)[C@H](CO)NC(=O)[C@H](Cc1c[nH]cn1)NC(=O)[C@H](CCCNC(=N)N)NC(=O)[C@H](CC(C)C)NC(=O)[C@H](Cc1ccccc1)NC(=O)[C@H](CCC(=O)O)NC(=O)[C@H](C)NC(=O)[C@H](CC(C)C)NC(=O)[C@H](CCCNC(=N)N)NC(=O)[C@H](CCC(N)=O)NC(=O)[C@@H](NC(=O)[C@H](C)NC(=O)[C@@H]1CSSC[C@H](NC(=O)[C@H](CCCCN)NC(=O)CC[C@H](NC(=O)CCCCCCCCCCCCCCCCCCC(=O)O)C(=O)O)C(=O)N[C@@H](CC(N)=O)C(=O)N[C@@H]([C@@H](C)O)C(=O)N[C@@H](C)C(=O)N[C@@H]([C@@H](C)O)C(=O)N1)[C@@H](C)O)C(=O)N1CCC[C@H]1C(=O)N[C@@H](CO)C(=O)N[C@@H](CO)C(=O)N[C@H](C(=O)N[C@@H](CC(N)=O)C(=O)N[C@H](C(=O)NCC(=O)N[C@@H](CO)C(=O)N[C@@H](CCCNC(=N)N)C(=O)N[C@H](C(=O)N[C@@H](Cc1ccc(O)cc1)C(N)=O)[C@@H](C)O)C(C)C)[C@@H](C)O
notes: Synthetic analogue; also called compound 16
As for B4, the IC50 in experiment [1] is 0.0171 µM. Further, in experiment [2], the “Ratio hCT/hAmylin binding” value is 19.1.

B5: N^α1-[(4S)-4-carboxy-4-(19-carboxynonadecanoylamino)butanoyl]-[Glu14,Arg17,Pro21,Pro27,Pro31]-h-amylin (peptide)
peptide: {C20 diacid-γGlu}-KCNTATCATQRLAEFLRHSSPNFGAIPSSTPVGSNTY-NH2
modifications: disulfide 2-7
SMILES: CC[C@H](C)[C@H](NC(=O)[C@H](C)NC(=O)CNC(=O)[C@H](Cc1ccccc1)NC(=O)[C@H](CC(N)=O)NC(=O)[C@@H]1CCCN1C(=O)[C@H](CO)NC(=O)[C@H](CO)NC(=O)[C@H](Cc1c[nH]cn1)NC(=O)[C@H](CCCNC(=N)N)NC(=O)[C@H](CC(C)C)NC(=O)[C@H](Cc1ccccc1)NC(=O)[C@H](CCC(=O)O)NC(=O)[C@H](C)NC(=O)[C@H](CC(C)C)NC(=O)[C@H](CCCNC(=N)N)NC(=O)[C@H](CCC(N)=O)NC(=O)[C@@H](NC(=O)[C@H](C)NC(=O)[C@@H]1CSSC[C@H](NC(=O)[C@H](CCCCN)NC(=O)CC[C@H](NC(=O)CCCCCCCCCCCCCCCCCCC(=O)O)C(=O)O)C(=O)N[C@@H](CC(N)=O)C(=O)N[C@@H]([C@@H](C)O)C(=O)N[C@@H](C)C(=O)N[C@@H]([C@@H](C)O)C(=O)N1)[C@@H](C)O)C(=O)N1CCC[C@H]1C(=O)N[C@@H](CO)C(=O)N[C@@H](CO)C(=O)N[C@H](C(=O)N1CCC[C@H]1C(=O)N[C@H](C(=O)NCC(=O)N[C@@H](CO)C(=O)N[C@@H](CC(N)=O)C(=O)N[C@H](C(=O)N[C@@H](Cc1ccc(O)cc1)C(N)=O)[C@@H](C)O)C(C)C)[C@@H](C)O
notes: Synthetic analogue; also called compound 31
As to B5, the IC50 in experiment [1] was found to be 0.00326 µM. For the same molecule, the “Ratio hCT/hAmylin binding” value in experiment [2] came out at 16.
